Source: the nanobody polyreactivity screen of Harvey et al. (2022)

Assay: yeast display, Sf9 membrane polyspecificity reagent, FACS + sequencing; frameworks hold sequencing errors
In short: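 After 36–48 hours of galactose induction, yeast (Saccharomyces cerevisiae BJ5465) displaying a synthetic nanobody library were stained at 4 °C for 1 hour with 10% biotinylated, detergent-solubilized Sf9 membrane reagent. Streptavidin microbeads enriched the stained cells before FACS sorting into low and high (top ~1%) gates on anti-HA and streptavidin fluorescence. Each clone's polyreactivity label reflects its gate of origin.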

Row | Sequence | polyreactivity (PSR sort gate)
1 | QVQLVESGGGLVQAGGSLLLSCAASGSIFGWYVMGWYRQEPGKERELVAAISSVGSTYYADSVKGRFTISRDNAKNTVYLQMNSLKPEDTAVYYCATDSNPKWDYALDSWGQGTQVTVSS | low polyreactivity
2 | QVQLVESGGGLVQAGGSLLLSCAASGSIFYSNAMAWYRQAPGKERELVATITWSGGRTYYADSVKGRFTISRDNAKNTVYLQMNSLKPDDTAVYYCAAVSIYWGQGTQVTVSS | low polyreactivity
3 | QVQLVESGGGLVQAGGSLLLSCAASGSILSKNAMGWYRQAPGKDRELVAAITWSGGSTYYADSVKGRFTISRDNAKNTVYLQMNSLKPEDTADYSCAADLDWSPQFGLPYDYWGQGTQVTVSS | low polyreactivity
4 | QVQLVESGGGLVQAGGSLLLSCAASGSTFYYNAMGWYRQATGKERELVARISRSGGSTYADSVKGRFTISRDNAKNTVYLQMNSLKPEDTAVYYCNADAYGTPEFTSYAVRYDYWGQGTQVTVSS | low polyreactivity
5 | QVQLVESGGGLVQAGGSLLLSCAASGSTLDPNVMGWYRPAPGKERELVAAITSGGSTYYADSVKGRFTISRDNAKNTVYLQMNSLKPEDTAVYYCNKDKGWLAHSRIWLWYDYWGQGTQVTVSS | low polyreactivity
6 | QVQLVESGGGLVQAGGSLLLSCAASGSTSQPYAMGWYRQAPGKERELVASITNGGITYYADSVKGRFTISRDNAKNTVYLQLNSLKPEVTAVYYCNADNVFEGYDRRSARACYRYYYWGQGTQVTVSS | low polyreactivity
7 | QVQLVESGGGLVQAGGSLLLSCAPSGSTIPSYAMGWYRQSPGKERELVASITYSDGTTRYADSVKGRFTISRDNAKNTVYLQMNSLKPEDTAVYYCNAVYYREGMDYWGQGTQVTVSS | low polyreactivity
8 | QVQLVESGGGLVQAGGSLLLSSAASGRTFWMYAMGWNRQAPGKESELVAGITWRGGSTYYADSVKGRFTISRDIAKNTVYLQMNSQKPEDTAVYYFAAEFWVSRSIWVYYYWGQGTQVTVSS | high polyreactivity
9 | QVQLVESGGGLVQAGGSLPLSCAASGFIFGTNTMGWYRQAPGKEREMVAAITSVGSTNYADSVKGRFTISRDNAKNTVYLQMNSLKPEDTAVYYCPATLYYQYGGDYWGQGTQVTVSS | low polyreactivity
10 | QVQLVESGGGLVQAGGSLPLSCAASGGTFRGNAMGWYRQAPGKERELVAAITGSGGSTYYADSVTGRFTISRDNAKNTVYLQMNSLKPEDSAVYYCAVDRASRRTYNQYGYWGQGTQVTVSS | high polyreactivity
11 | QVQLVESGGGLVQAGGSLPLSCAASGITIYGYAMGWYRQAPGKESELVAAMSTSGGRTYYADSVKGRFTISRDNAKNTVYLQMNSMKPEDTAVYYCAVAPYKGTWDSRSSWRRRAYWGQGTQVTVSS | high polyreactivity
12 | QVQLVESGGGLVQAGGSLPLSCAASGRIFKDNAMGWYRQAPGNEREMVAAISSGASTSYADSVKGRFTISRDYAKNTVYLQRNSLKPEDTAVYYCNGGGDLYYPGWLFDYWGQGTQVTVSS | low polyreactivity
13 | QVQLVESGGGLVQAGGSLPLSCAASGRIIDRYAMGWSRQATGKERDLVASISSGGSTYYADSVKGRFTISRDNAKNTVYLQMNSLKPEDTAVYYCNAEARSRRYRYDYWGQGTQVTVSS | high polyreactivity
14 | QVQLVESGGGLVQAGGSLPLSCAASGRTFDVYPMGWYRQAPGKERELVAAINGGGSTYYADSVKGRFTISRDNAKNTVYLQINSLKPEDTALYYCAAKFRAGRSSYYWGQGTQVTVSS | high polyreactivity
15 | QVQLVESGGGLVQAGGSLPLSCAASGRTFNFYAMGWYRQAPGKERELVATISGGVSTYYADSVKGPFTISRDNAKITVYLQMNSLKPEDTAVYYCAKDSCYPQWDLDYWGQGTQVTVSS | high polyreactivity
16 | QVQLVESGGGLVQAGGSLPLSCAASGRTFRRYGMGWYSNAHGKERELVAGISGYGTTNYADSVKGRFTISRDNAKNTVYLQMNSLKPEDSAVYYCAAGRPYYYTYSGLYYWGQGTQVTVSS | high polyreactivity
17 | QVQLVESGGGLVQAGGSLPLSCAASGRTFRSNAMGWYRQAPGKERELVAAISWSGGSTYYADSVKGRFTISRDNAKTSVYFQLNSLKPEDTAVYYCAAYYYTRFEWGQGTQVTVSS | high polyreactivity
18 | QVQLVESGGGLVQAGGSLPLSCAASGSIFSKYTMGWYRQAPGKERELDAAISRAGSTYYADSVKGRFTISRDNAKNSVYLQMNSLKPEDTAVYYCNARYRGVYPLIGIRRDYYYWGQGTQVTVSS | high polyreactivity
19 | QVQLVESGGGLVQAGGSLPLSCAASGSILYFYAMGWYRQSPGKERELVAAISWTGGSTYYADSVKGRFTISRDNAKNTVYLQMNSLKPEDTAVYYCAAELWYEGYDYWGQGTQVTVSS | high polyreactivity
20 | QVQLVESGGGLVQAGGSLPLSCAASGSIVTDNAMGWYRQAPGKERELVAANTSSGNTNYADSVKGRFTISRDNAKNTVDLQMKSLKPEDTAVYYCAADSYYTHWTDWLPVGEDYWGQVTQVTVSS | low polyreactivity
21 | QVQLVESGGGLVQAGGSLPLSSAASGITLRYYAMRWYRQAPGKERELVAAMSGRGGGTYYADSVKGRFTISRDNAKNTVYLQMNSLKPEDTAVYYCNAVGQQQVEYEYWGQGTQVTVSS | high polyreactivity
22 | QVQLVESGGGLVQAGGSLRCSCAASGFTFYSYAMGWYRQAPGKERELVAAITESGGSTYYADSVKGRFTISRDNAKNTVYLQMNSLKPEDTAVYYCAAQFAQRPQYYYFVWYDYWGQGTQVTVSS | low polyreactivity

Row | Sequence | polyreactivity (PSR sort gate)
23 | QVQLVESGGGLVQAGGSLRCSCSASGGIFVNYAMGWSRPAPGKETELVAAISRSGGSTYYADSVKGRFTISRDNANNTVYLQMNSLKPEDTAVYYCAKRRVYYGSRYHYWGEGTQVTVSS | high polyreactivity
24 | QVQLVESGGGLVQAGGSLRFSCAASGFTFRKNAMGWYRQAPGKERELVAAISRRGGRTYYADSVKGRFTISRDNAKNTVYLQMNSLKPEDTAVYYCNADEYGGSTGRKGRYNYWGQGTQVTVSS | low polyreactivity
25 | QVQLVESGGGLVQAGGSLRFSCAASGFTFVYNAMGWYRQAPGKERELVARISVSGGSTYYADSVKGRFTISRDNAKNTVYLQMNSLKPEDTAVYYCAAELSAPQPDYQQKVDYYYWGQGTQVTVSS | low polyreactivity
26 | QVQLVESGGGLVQAGGSLRFSCAASGFTFYLYTMGWYRQAPGKDRELVAAINYSGGTTYYADSVKGRFTISRDNAKNTVYLQMNSLKPEDTAVYYCAATVGYSYNPRKNYYWGQGTQVTVSS | low polyreactivity
27 | QVQLVESGGGLVQAGGSLRFSCAASGITFRRYAMGWYRQAPGKERELVASISRGGSTYYADSVKGRFTISRDNAKNTVYLQMNSLKPEDTAVYYCAADVAWRYDYWGQGTQVNVSS | high polyreactivity
28 | QVQLVESGGGLVQAGGSLRFSCAASGNILPSNAMGWYRQAPGKERELVAVINSSGNTNYADSVKGRFTISRDNAKKTVYLQMNSLKPEDTAVYYCVIWFRYDRARKLYYWGQGTQVTVSS | high polyreactivity
29 | QVQLVESGGGLVQAGGSLRFSCAASGRIFGTYAMGWYRQAPGKERELVAAITQSGGRTYYADSVKGRFTISRDNAKNTVYLQMNSLKPEDTAVYDCNKVTYRGIGLGYDYWGQGTQVTVSS | high polyreactivity
30 | QVQLVESGGGLVQAGGSLRFSCAASGRIFRYYAMGWYRQAPGKERELVAGIRTSGGRTYADSVKGRFTISRDNAKNTVYLQMNSLKPEDTAVYYCAAGRRTLSMYYWGQGTQVTVSS | high polyreactivity
31 | QVQLVESGGGLVQAGGSLRFSCAASGRIFTFYAMGWYRQAPGKERELVAAITSGGSTYYADSVKGRFTISRDNAKNTVYLQMNSLKPEDTAVYYCNALHHTQHDYWGQGTQVTVSS | low polyreactivity
32 | QVQLVESGGGLVQAGGSLRFSCAASGRIFVNYAMGWYRQAPGKEREFVAAITSSGGSTYYADSVKGRFTISRDNAKNTVYLQMNSLKPEDTAVYYCAARGSLGGWGLRYYWGQGTQVTVSS | high polyreactivity
33 | QVQLVESGGGLVQAGGSLRFSCAASGRIYYNAMGWYRQAPGKERELVAAISGSGTRTYYADSVKGRFTISRDNAKNTVFLQMNSLKPEDTAVYYCNAKFFLAATTRYYYWGQGTQVTVSS | high polyreactivity
34 | QVQLVESGGGLVQAGGSLRFSCAASGRTFPSKTMGLYRQAPGKERELVAAISKNGGSTYYADSVKGRFTISRDNAKNTVYLQMNSLKPEDTAVYYCNRVRYPRVDYWGQGTQVTVSS | high polyreactivity
35 | QVQLVESGGGLVQAGGSLRFSCAASGRTFQYYAMGWSRQAPGKERELVAAISQDGGSTYYADSVKGRFTISRDNAKNTVYLQMNSLKPEDTAVYYCAAEVWRSYGYWGQGTQVTVSS | low polyreactivity
36 | QVQLVESGGGLVQAGGSLRFSCAASGSIFDSYAMGWYRHAPGKERELVAAITWSGGITFYADSVKGRYTISRDNAKNTVYLQMNSLKPEDTAVYYCATARSYVGVGGTFVGLYDYWGQGTQVTVSS | low polyreactivity
37 | QVQLVESGGGLVQAGGSLRFSCAASGSIFGKNAIGWYRQAPGKERELVAAITRSGGSTYYADSVKGRFTISRDNAKNTVYLQMNSLKPEDTAVYYCNAVRVRVTSHRIRQLDYGYWGQGTQVTVSS | low polyreactivity
38 | QVQLVESGGGLVQAGGSLRFSCAASGSIFGSYAMGWYRQAPGKERELVAAITRGGGTTYYADSVKGRFTISRDNAKNTVYLQMNSLKPEDTAVYYCAAKWYHPYGPVYYWGQGTQVTVSS | high polyreactivity
39 | QVQLVESGGGLVQAGGSLRFSCAASGSIFGYYSLGWYRQAPGKERELVASITFRDGSTYYADSVKGRFTISRDNAKNTVYLQMNSLKPEDTAVYYCAARYYRRYFSDYDYWGQGTQVTVSS | low polyreactivity
40 | QVQLVESGGGLVQAGGSLRFSCAASGSIFPYAMGWSIQEPGKERELVAAITSGVRTNYADSVKGRFTISRDNAKNPVDLQMNSLKPEATEVYYCAVLPRGSNGMDYWGQGTQVTVSS | low polyreactivity
41 | QVQLVESGGGLVQAGGSLRFSCAASGSIFRLYAMGWYRLAPGKDRELVATLTSGGNTYADSVKGRFTISRENAKNTVYLQMNSLKPEDTAVYYCHAGQYGYYYKGYDYWGQGTQVTVSS | high polyreactivity
42 | QVQLVESGGGLVQAGGSLRFSCAASGSIFYVYAMGWYRQAPGKERELVAAIRWSGGSTYYADSVKGRFTISRDNAKKSVYLQMNSLKPEDTAVYYCAADAIPDSVCYWEYDYWGQGTQVTVSS | low polyreactivity
43 | QVQLVESGGGLVQAGGSLRFSCAASGSIYRNNAIGWYRQAPGKERELVAAITSTGTGTYYADSVKGRFTISRDNAKNTVYFQMNSLKPEDTAVYYCAVDDDFEFGYWGQGTQVTVSS | low polyreactivity
